How the values were obtained:
[1] = system: T1, G4P (artificial (RSM derived from human RHAU/DHX36)); experiment: smTIRFM (koff/kon); conditions: EMSA: DNA annealed in 200 mM Tris pH 7.4, 100 mM KCl, 1 mM EDTA; binding 10 min at 25 C, native PAGE; smTIRFM: 100 pM tethered DNA, 100-5000 pM protein, buffer …
T1 sequence: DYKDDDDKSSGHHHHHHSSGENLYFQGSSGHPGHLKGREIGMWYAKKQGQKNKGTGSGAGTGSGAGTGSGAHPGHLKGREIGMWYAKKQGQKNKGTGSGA

[2] = system: T2, 2FJG4P (artificial (motif derived from human FANCJ)); experiment: smTIRFM (koff/kon); conditions: EMSA: DNA annealed in 200 mM Tris pH 7.4, 100 mM KCl, 1 mM EDTA; binding 10 min at 25 C, native PAGE; smTIRFM: 100 pM tethered DNA, 100-5000 pM protein, buffer …
T2 sequence: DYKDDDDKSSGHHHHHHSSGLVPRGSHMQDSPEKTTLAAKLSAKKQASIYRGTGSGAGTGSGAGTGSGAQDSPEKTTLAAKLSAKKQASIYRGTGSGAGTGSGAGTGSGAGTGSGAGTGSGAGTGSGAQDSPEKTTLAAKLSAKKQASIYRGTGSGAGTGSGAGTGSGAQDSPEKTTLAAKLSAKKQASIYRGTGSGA

[3] = system: T3, FJG4P (artificial (motif derived from human FANCJ)); experiment: smTIRFM (koff/kon); conditions: EMSA: DNA annealed in 200 mM Tris pH 7.4, 100 mM KCl, 1 mM EDTA; binding 10 min at 25 C, native PAGE; smTIRFM: 100 pM tethered DNA, 100-5000 pM protein, buffer …
T3 sequence: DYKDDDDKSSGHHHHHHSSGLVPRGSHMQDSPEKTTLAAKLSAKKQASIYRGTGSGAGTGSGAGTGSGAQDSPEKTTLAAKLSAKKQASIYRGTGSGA

2FJG4P [4] = target: T4, 2FJG4P (artificial (motif derived from human …)); experiment: smTIRFM (koff/kon); kon 4.7e9 M-1 s-1, koff 1.0 s-1; EMSA: DNA annealed in 200 mM Tris pH 7.4, 100 mM KCl, 1 mM EDTA; binding 10 min at 25 C, native PAGE; smTIRFM: 100 pM tethered DNA, 100-5000 pM protein, buffer; conditions: protein: recombinant; tags: N-terminal FLAG-6xHis; label: 3' biotin on strand 2; 18 bp duplex with 3' ssDNA tail folded as parallel G4
T4 chain: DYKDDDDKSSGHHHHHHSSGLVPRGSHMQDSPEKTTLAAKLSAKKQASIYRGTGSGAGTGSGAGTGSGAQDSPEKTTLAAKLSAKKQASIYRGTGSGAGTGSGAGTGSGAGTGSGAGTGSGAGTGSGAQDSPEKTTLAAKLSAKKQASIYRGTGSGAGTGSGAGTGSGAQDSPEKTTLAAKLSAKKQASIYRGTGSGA

2G4P [5] = target: T5, 2G4P (artificial (RSM derived from human …)); experiment: smTIRFM (koff/kon); kon 3.9e9 M-1 s-1, koff 0.62 s-1; EMSA: DNA annealed in 200 mM Tris pH 7.4, 100 mM KCl, 1 mM EDTA; binding 10 min at 25 C, native PAGE; smTIRFM: 100 pM tethered DNA, 100-5000 pM protein, buffer; conditions: protein: recombinant; tags: N-terminal FLAG-6xHis; label: 3' biotin on strand 2; 18 bp duplex with 3' ssDNA tail folded as parallel G4
T5 chain: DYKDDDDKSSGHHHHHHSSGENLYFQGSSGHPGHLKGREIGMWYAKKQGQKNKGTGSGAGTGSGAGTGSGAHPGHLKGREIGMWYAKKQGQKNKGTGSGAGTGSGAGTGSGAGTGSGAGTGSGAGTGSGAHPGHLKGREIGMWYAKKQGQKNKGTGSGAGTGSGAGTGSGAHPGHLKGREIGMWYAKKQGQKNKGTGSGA

FJG4P [6] = target: T6, FJG4P (artificial (motif derived from human …)); experiment: smTIRFM (koff/kon); kon 3.45e9 M-1 s-1, koff 0.94 s-1; EMSA: DNA annealed in 200 mM Tris pH 7.4, 100 mM KCl, 1 mM EDTA; binding 10 min at 25 C, native PAGE; smTIRFM: 100 pM tethered DNA, 100-5000 pM protein, buffer; conditions: protein: recombinant; tags: N-terminal FLAG-6xHis; label: 3' biotin on strand 2; 18 bp duplex with 3' ssDNA tail folded as parallel G4
T6 chain: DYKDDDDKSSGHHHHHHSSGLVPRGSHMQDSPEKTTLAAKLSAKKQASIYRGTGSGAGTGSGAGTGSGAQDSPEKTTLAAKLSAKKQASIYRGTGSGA

G4P [7] = target: T7, G4P (artificial (RSM derived from human …)); experiment: smTIRFM (koff/kon); kon 2.16e9 M-1 s-1, koff 0.61 s-1; EMSA: DNA annealed in 200 mM Tris pH 7.4, 100 mM KCl, 1 mM EDTA; binding 10 min at 25 C, native PAGE; smTIRFM: 100 pM tethered DNA, 100-5000 pM protein, buffer; conditions: protein: recombinant; tags: N-terminal FLAG-6xHis; label: 3' biotin on strand 2; 18 bp duplex with 3' ssDNA tail folded as parallel G4
T7 chain: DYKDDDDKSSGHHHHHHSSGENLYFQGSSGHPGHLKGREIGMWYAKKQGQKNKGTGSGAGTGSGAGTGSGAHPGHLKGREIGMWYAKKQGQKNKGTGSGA

FJG4P [8] = target: T6, FJG4P; experiment: EMSA; EMSA: DNA annealed in 200 mM Tris pH 7.4, 100 mM KCl, 1 mM EDTA; binding 10 min at 25 C, native PAGE; smTIRFM: 100 pM tethered DNA, 100-5000 pM protein, buffer; conditions: protein: recombinant; tags: N-terminal FLAG-6xHis; label: 3' 6-FAM; intramolecular parallel G4
2G4P [9] = target: T5, 2G4P; experiment: as above; conditions: protein: recombinant, tags: N-terminal FLAG-6xHis
G4P [10] = target: T7, G4P; experiment: as above; conditions: protein: recombinant, tags: N-terminal FLAG-6xHis
2FJG4P [11] = target: T4, 2FJG4P; experiment: as above; conditions: protein: recombinant; tags: N-terminal FLAG-6xHis; label: 3' 6-FAM; intramolecular parallel G4
FJG4P [12] = target: T6, FJG4P; experiment: EMSA; no detectable binding; EMSA: DNA annealed in 200 mM Tris pH 7.4, 100 mM KCl, 1 mM EDTA; binding 10 min at 25 C, native PAGE; smTIRFM: 100 pM tethered DNA, 100-5000 pM protein, buffer; conditions: protein: recombinant; tags: N-terminal FLAG-6xHis; label: 5' fluorescein; intramolecular G4, mixed topology
G4P [13] = target: T7, G4P; experiment: smTIRFM (koff/kon); kon 0.43e9 M-1 s-1, koff 0.67 s-1; EMSA: DNA annealed in 200 mM Tris pH 7.4, 100 mM KCl, 1 mM EDTA; binding 10 min at 25 C, native PAGE; smTIRFM: 100 pM tethered DNA, 100-5000 pM protein, buffer; conditions: protein: recombinant; tags: N-terminal FLAG-6xHis; label: 3' biotin on strand 2; 18 bp duplex with 3' ssDNA tail folded as G4, mixed topology
2FJG4P [14] = target: T4, 2FJG4P; experiment: smTIRFM (koff/kon); kon 0.0339e9 M-1 s-1, koff 0.4 s-1; EMSA: DNA annealed in 200 mM Tris pH 7.4, 100 mM KCl, 1 mM EDTA; binding 10 min at 25 C, native PAGE; smTIRFM: 100 pM tethered DNA, 100-5000 pM protein, buffer; conditions: protein: recombinant; tags: N-terminal FLAG-6xHis; label: 3' biotin on strand 2; 18 bp duplex with 3' ssDNA tail folded as G4, mixed topology
2G4P [15] = target: T5, 2G4P; experiment: smTIRFM (koff/kon); kon 0.0845e9 M-1 s-1, koff 0.29 s-1; EMSA: DNA annealed in 200 mM Tris pH 7.4, 100 mM KCl, 1 mM EDTA; binding 10 min at 25 C, native PAGE; smTIRFM: 100 pM tethered DNA, 100-5000 pM protein, buffer; conditions: protein: recombinant; tags: N-terminal FLAG-6xHis; label: 3' biotin on strand 2; 18 bp duplex with 3' ssDNA tail folded as G4, mixed topology
FJG4P [16] = target: T6, FJG4P; experiment: smTIRFM (koff/kon); kon 0.01e9 M-1 s-1, koff 0.33 s-1; EMSA: DNA annealed in 200 mM Tris pH 7.4, 100 mM KCl, 1 mM EDTA; binding 10 min at 25 C, native PAGE; smTIRFM: 100 pM tethered DNA, 100-5000 pM protein, buffer; conditions: protein: recombinant; tags: N-terminal FLAG-6xHis; label: 3' biotin on strand 2; 18 bp duplex with 3' ssDNA tail folded as G4, mixed topology
2FJG4P [17] = target: T4, 2FJG4P; experiment: mass photometry; largest network size; EMSA: DNA annealed in 200 mM Tris pH 7.4, 100 mM KCl, 1 mM EDTA; binding 10 min at 25 C, native PAGE; smTIRFM: 100 pM tethered DNA, 100-5000 pM protein, buffer; conditions: protein: recombinant; tags: N-terminal FLAG-6xHis; two G4s, mixed topology
2G4P [18] = target: T5, 2G4P; experiment: mass photometry; higher molecular weight complexes; EMSA: DNA annealed in 200 mM Tris pH 7.4, 100 mM KCl, 1 mM EDTA; binding 10 min at 25 C, native PAGE; smTIRFM: 100 pM tethered DNA, 100-5000 pM protein, buffer; conditions: protein: recombinant; tags: N-terminal FLAG-6xHis; two G4s, mixed topology
2FJG4P [19] = target: T4, 2FJG4P; experiment: as above; conditions: protein: recombinant; tags: N-terminal FLAG-6xHis; G4, mixed topology
[20] = label: 3' 6-FAM, intramolecular parallel G4
[21] = label: 5' fluorescein, intramolecular G4, mixed topology

TGGCGACGGCAGCGAGGCTTAGGGTTAGGGTTAGGGTTTAGGGTTAGGGTTAGGGTTAGGGTTTAGGGTTAGGG / GCCTCGCTGCCGTCGCCA [2hTelG4 (smTIRFM tethering)]
Kd [1]: 1.9 nM
Kd [2]: 4.6 nM
Kd [3]: 14.5 nM

B1: c-MYCG4 (smTIRFM tethering) (mixed)
DNA 1: TGGCGACGGCAGCGAGGCTGGGTGGGTAGGGTGGGTTT
DNA 2: GCCTCGCTGCCGTCGCCA
Kd (2FJG4P [4]): 0.2 ± 0.01 nM
Kd (2G4P [5]): 0.16 ± 0.01 nM
Kd (FJG4P [6]): 0.27 ± 0.03 nM
Kd (G4P [7]): 0.22 ± 0.02 nM

TGGGTGGGTAGGGTGGGTTT (structured_DNA) [c-MYCG4 (EMSA)]
Kd (FJG4P [8]): 110 ± 58.9 nM
Kd (2G4P [9]; [20]): 27.7 ± 4 nM
Kd (G4P [10]; [20]): 84.1 ± 8 nM
Kd (2FJG4P [11]): 130 ± 63 nM

TTAGGGTTAGGGTTAGGGTTTAGGGTTAGGG (structured_DNA) [hTelG4 (EMSA)]
binding result (FJG4P [12]): no binding
Kd (2G4P [9]; [21]): 86.2 ± 6 nM
Kd (G4P [10]; [21]): 558 ± 157 nM

B2: hTelG4 (smTIRFM tethering) (mixed)
DNA 1: TGGCGACGGCAGCGAGGCTTAGGGTTAGGGTTAGGGTTTAGGGTTAGGG
DNA 2: GCCTCGCTGCCGTCGCCA
Kd (G4P [13]): 1.6 ± 0.1 nM
Kd (2FJG4P [14]): 10.7 ± 1.7 nM
Kd (2G4P [15]): 3.4 ± 0.3 nM
Kd (FJG4P [16]): 32.7 ± 4.8 nM

B3: 2hTelG4 (mass photometry) (structured_DNA)
DNA: TTAGGGTTAGGGTTAGGGTTTAGGGTTAGGGTTAGGGTTAGGGTTAGGGTTTAGGGTTAGGG
binding result (2FJG4P [17]): binds
binding result (2G4P [18]): binds

TTAGGGTTAGGGTTAGGGTTTAGGGTTAGGG (structured_DNA) [hTelG4 (mass photometry)]
binding result (2FJG4P [19]): binds
